Data taken from US8623366B2, “Methods for treating visceral pain by administering antagonist antibodies directed against calcitonin gene-related peptide” (Labrys Biologics, Inc., priority 2009, dated 2014).
Numbering of substitutions follows the chain as printed.

Experiments:
human α-CGRP [1] = target: T1, human α-CGRP (Homo sapiens, UniProt P06881); test: Biacore interaction analysis of Fab fragments, N-biotin α-human/cyno CGRP on chip; format: binding
T1 sequence (P06881 83-119 limits assumed): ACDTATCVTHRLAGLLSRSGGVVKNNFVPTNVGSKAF
Method: (§1) Interaction analysis was conducted at 25° C. and at 37° C. on a Biacore 3000™ system equipped with streptavidin-coated (SA) sensor chips (Biacore AB, Uppsala, Sweden) using standard Biacore running buffers (HBS-P or HBS-EP). N-LC-biotinylated human and rat α- and β-CGRPs were captured on individual flow cells at low levels (typically 100 response units) to provide the reaction surfaces, while an unmodified flow cell served as a reference channel. Purified Fab fragments of antibodies G1 and G2 were generated. Typically, Fabs were prepared as a two-fold serial dilution using 0.5 μM as the top concentration and injected for 1-min at 100 μl/min allowing up to two hours for the dissociation time. Surfaces were regenerated with a mixture of 50% v/v ethanol+25 mM NaOH for G1 Fab and 2:1 v/v Pierce Gentle Elution Buffer/4M NaCl for G2 Fab. […] The binding responses were double-referenced and fit globally to a simple model using BiaEvaluation v. 4.0 software. Affinities were deduced from the quotient of the kinetic rate constants (KD=koff/kon).
(§2) As such, the offrate (koff) cannot be measured accurately unless the dissociation phase is monitored for a very long time. As a general rule-of-thumb, the binding response decays at least 5% over the allowed dissociation time for the report of an accurate offrate. However, monitoring long dissociation times on the Biacore is hindered by baseline drift, which is particularly challenging when working at the low surface capacities required for kinetic analyses. In this study, the dissociation phase was followed for two hours over the α-CGRPs but only 20 mins over the β-CGRPs. As a result, the offrates for β-CGRPs cannot be resolved as accurately as those for α-CGRPs.

human β-CGRP = target: T2, human β-CGRP (Homo sapiens, UniProt P10092); test: Biacore interaction analysis of Fab fragments, N-biotin β-human/cyno CGRP on chip; format: binding; settings: β-human/cyno CGRP, 37° C., 20 min dissociation
T2 construct: and
T2 sequence (P10092 82-118 limits assumed): T1 sequence (P06881 83-119 limits assumed) with D3N, V22M, N25S
Method: as §1, §2

rat α-CGRP = target: T3, rat α-CGRP (Rattus norvegicus, UniProt P01256); test: Biacore interaction analysis of Fab fragments, N-biotin α-rat CGRP on chip; format: binding
T3 sequence (P01256 83-119 limits assumed): T1 sequence (P06881 83-119 limits assumed) with A1S, D3N, N25D, K35E
Method: as §1, §2

rat β-CGRP = target: T4, rat β-CGRP (Rattus norvegicus, UniProt P10093, R105S); test: Biacore interaction analysis of Fab fragments, N-biotin β-rat CGRP on chip; format: binding; settings: β-rat CGRP, 37° C., Fab, 20 min dissociation
T4 sequence (P10093 89-125 R105S limits assumed): T1 sequence (P06881 83-119 limits assumed) with A1S, D3N, N25D
Method: as §1, §2
The results for antibody G2 are expressed in Table 2.

[2] = target: T5, human α-CGRP binding to the CGRP1-receptor (Homo sapiens, UniProt P06881); test: Binding assay: blocking 125I-human α-CGRP from binding to CGRP1-receptor on SK-N-MC cell membranes; settings: IC50 higher than Biacore KD at equivalent temperature
T5 construct: host or cells: receptor: endogenous, membranes of SK-N-MC cells
T5 sequence (P06881 83-119 limits assumed): T1 sequence (P06881 83-119 limits assumed)
Method: A binding assay was performed to measure the IC50 of anti-CGRP G1 antibody in blocking human α-CGRP from binding to the CGRP1-receptor. […] Incubation was terminated by filtration through a glass microfiber filter (GF/B, 1 μm) which had been blocked with 0.5% polyethylenimine. The protein-bound radioactivity was determined in a gamma counter.

α-rat CGRP = target: T6, α-rat CGRP (Rattus norvegicus, UniProt P01256); settings: Table 6 reproduced from WO2007/054809; cited from earlier work
T6 sequence (P01256 83-119 limits assumed): T1 sequence (P06881 83-119 limits assumed) with A1S, D3N, N25D, K35E

human α-CGRP [3] = target: T1, human α-CGRP; settings: Table 6 reproduced from WO2007/054809; cited from earlier work

G1: anti-CGRP antagonist antibody produced by expression vectors ATCC PTA-6867 and PTA-6866; VH SEQ ID NO: 1, VL SEQ ID NO: 2 [Clone G1]
koff (human α-CGRP [1]; 25° C.): 7.8e-06 s⁻¹
kon (human α-CGRP [1]; 25° C.): 186000 M⁻¹ s⁻¹
koff (human α-CGRP [1]; 37° C.): 3.63e-05 s⁻¹
kon (human α-CGRP [1]; 37° C.): 587000 M⁻¹ s⁻¹
koff (human β-CGRP): <6.98e-05 s⁻¹
kon (human β-CGRP): 451000 M⁻¹ s⁻¹
koff (rat α-CGRP; 25° C.): 6.18e-05 s⁻¹
kon (rat α-CGRP; 25° C.): 50800 M⁻¹ s⁻¹
koff (rat α-CGRP; 37° C.): 0.000399 s⁻¹
kon (rat α-CGRP; 37° C.): 155000 M⁻¹ s⁻¹
koff (rat β-CGRP): <7.85e-05 s⁻¹
kon (rat β-CGRP): 516000 M⁻¹ s⁻¹
IC50 relative to KD observed by Biacore [2]: 23 fold
α-rat koff (α-rat CGRP): 0.000399 s⁻¹
α-human koff (human α-CGRP [3]): 3.63e-05 s⁻¹
